Patent US20140274782A1, “AFFINITY REAGENTS AND METHODS FOR DETECTION, PURIFICATION, AND PROTEOMIC ANALYSIS OF METHYLATED PROTEINS” (The Board of Trustees of the Leland Stanford Junior …, priority 2013, published 2014)

How the values were obtained:
G9a and GLP = molecular target: T1, G9a and GLP (Homo sapiens, UniProt Q96KQ7+Q9H9B1); assay: Triple SILAC pull-down after UNC0638 treatment of 293T cells, DMSO/UNC0638 ratio of protein captured by 3×MBT; assay type: cell-based; parameters: cells were treated for 24 hours with UNC0638 at 2.5 μM or DMSO vehicle control; endogenous in cells; host or cells: HEK 293T; details: for Protein Ratios DMSO/UNC0638: SILAC ratio of protein captured by 3xMBT, 293T cells treated 24 hours with UNC0638 at 2.5 μM or DMSO;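 as to all read-outs here: mass spectrometry (Q-Exactive) SILAC quantitation, DMSO/UNC0638 ratio computed after subtracting 3×MBTD355N mutant pull-down background, only proteins with at least twofold 3×MBT over mutant signal considered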
T1 sequence (Q96KQ7 2-1210 limits assumed): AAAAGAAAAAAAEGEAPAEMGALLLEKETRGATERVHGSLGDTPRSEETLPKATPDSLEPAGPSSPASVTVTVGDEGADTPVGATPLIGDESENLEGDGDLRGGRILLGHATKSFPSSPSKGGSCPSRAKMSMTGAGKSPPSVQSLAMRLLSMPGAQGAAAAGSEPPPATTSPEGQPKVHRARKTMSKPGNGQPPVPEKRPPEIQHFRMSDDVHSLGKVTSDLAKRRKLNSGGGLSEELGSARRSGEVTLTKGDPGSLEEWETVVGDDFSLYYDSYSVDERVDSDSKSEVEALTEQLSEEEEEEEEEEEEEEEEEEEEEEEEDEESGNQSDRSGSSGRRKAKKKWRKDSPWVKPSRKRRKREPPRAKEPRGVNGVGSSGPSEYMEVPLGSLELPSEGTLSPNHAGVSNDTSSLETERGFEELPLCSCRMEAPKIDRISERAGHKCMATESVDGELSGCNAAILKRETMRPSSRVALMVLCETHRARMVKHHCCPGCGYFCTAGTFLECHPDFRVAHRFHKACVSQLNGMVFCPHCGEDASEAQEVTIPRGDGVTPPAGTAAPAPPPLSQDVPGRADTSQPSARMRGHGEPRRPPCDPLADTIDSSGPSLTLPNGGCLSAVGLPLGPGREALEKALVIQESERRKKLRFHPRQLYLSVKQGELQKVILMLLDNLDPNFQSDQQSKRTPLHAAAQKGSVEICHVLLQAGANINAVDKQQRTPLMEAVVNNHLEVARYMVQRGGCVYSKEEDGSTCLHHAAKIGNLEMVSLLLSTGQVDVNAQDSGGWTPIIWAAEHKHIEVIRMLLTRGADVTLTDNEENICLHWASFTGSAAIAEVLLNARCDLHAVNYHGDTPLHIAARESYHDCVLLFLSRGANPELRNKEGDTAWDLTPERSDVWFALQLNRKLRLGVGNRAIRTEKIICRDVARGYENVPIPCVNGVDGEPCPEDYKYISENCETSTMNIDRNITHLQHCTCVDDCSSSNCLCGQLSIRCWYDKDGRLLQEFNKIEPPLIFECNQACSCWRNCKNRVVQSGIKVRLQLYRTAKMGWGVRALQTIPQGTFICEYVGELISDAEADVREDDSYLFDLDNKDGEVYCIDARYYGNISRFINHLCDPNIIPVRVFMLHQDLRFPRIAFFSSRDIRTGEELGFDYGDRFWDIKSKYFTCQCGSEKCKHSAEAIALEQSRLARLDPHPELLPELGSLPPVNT
T1 sequence (Q9H9B1 2-1298 limits assumed): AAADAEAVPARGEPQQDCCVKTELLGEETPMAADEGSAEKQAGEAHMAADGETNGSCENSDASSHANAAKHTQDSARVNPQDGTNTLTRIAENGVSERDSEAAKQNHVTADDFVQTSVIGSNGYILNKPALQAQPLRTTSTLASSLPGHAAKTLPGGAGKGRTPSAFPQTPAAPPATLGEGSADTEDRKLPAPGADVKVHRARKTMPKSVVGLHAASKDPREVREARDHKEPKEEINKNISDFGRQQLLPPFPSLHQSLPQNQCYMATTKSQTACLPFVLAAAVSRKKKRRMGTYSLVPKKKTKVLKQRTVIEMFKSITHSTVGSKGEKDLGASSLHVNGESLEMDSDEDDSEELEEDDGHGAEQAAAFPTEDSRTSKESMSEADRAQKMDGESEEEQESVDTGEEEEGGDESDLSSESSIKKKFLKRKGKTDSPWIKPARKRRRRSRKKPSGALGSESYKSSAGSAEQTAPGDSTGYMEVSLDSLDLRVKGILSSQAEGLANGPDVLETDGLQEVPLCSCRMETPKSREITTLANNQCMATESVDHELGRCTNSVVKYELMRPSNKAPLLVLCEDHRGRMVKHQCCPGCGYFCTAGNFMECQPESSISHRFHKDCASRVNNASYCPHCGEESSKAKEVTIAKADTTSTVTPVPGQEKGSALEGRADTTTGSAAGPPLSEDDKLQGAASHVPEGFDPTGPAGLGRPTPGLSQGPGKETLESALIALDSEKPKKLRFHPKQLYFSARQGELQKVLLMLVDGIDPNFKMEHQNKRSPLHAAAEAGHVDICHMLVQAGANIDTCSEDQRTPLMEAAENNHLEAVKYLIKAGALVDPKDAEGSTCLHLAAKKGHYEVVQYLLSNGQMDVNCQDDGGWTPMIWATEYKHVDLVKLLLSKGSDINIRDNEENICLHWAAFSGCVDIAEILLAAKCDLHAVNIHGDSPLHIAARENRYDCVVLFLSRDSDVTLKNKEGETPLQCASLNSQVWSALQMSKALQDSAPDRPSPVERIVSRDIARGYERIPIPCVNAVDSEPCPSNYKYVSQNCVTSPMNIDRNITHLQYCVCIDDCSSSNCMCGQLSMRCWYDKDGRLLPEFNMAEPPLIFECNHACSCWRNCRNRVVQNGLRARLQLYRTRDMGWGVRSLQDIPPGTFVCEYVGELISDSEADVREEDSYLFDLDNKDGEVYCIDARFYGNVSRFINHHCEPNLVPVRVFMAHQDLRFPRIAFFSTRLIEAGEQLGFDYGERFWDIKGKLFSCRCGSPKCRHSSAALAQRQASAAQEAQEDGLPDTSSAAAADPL

3×MBT domain of L3MBTL1 = assay: Triple SILAC pull-down, 3xMBT/3xMBTD355N ratio (cytoplasmic, nuclear and chromatin fractions of 293T cells); assay type: binding, human; details: SILAC ratio; for Protein Ratios 3xMBT/D355N: pull-down by 3xMBT vs 3xMBTD355N, 293T cells;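 as to all read-outs here: proteins quantified with MaxQuant, requiring at least two unique peptides and quantification in both label directions, normalized to the mean of proteins from a digested loading control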

B1: Cleavage and polyadenylation specificity factor subunit 2 (protein, UniProt Q9P2I0 1-782, looked up)
Cleavage and polyadenylation …: MTSIIKLTTLSGVQEESALCYLLQVDEFRFLLDCGWDEHFSMDIIDSLRKHVHQIDAVLLSHPDPLHLGALPYAVGKLGLNCAIYATIPVYKMGQMFMYDLYQSRHNTEDFTLFTLDDVDAAFDKIQQLKFSQIVNLKGKGHGLSITPLPAGHMIGGTIWKIVKDGEEEIVYAVDFNHKREIHLNGCSLEMLSRPSLLITDSFNATYVQPRRKQRDEQLLTNVLETLRGDGNVLIAVDTAGRVLELAQLLDQIWRTKDAGLGVYSLALLNNVSYNVVEFSKSQVEWMSDKLMRCFEDKRNNPFQFRHLSLCHGLSDLARVPSPKVVLASQPDLECGFSRDLFIQWCQDPKNSIILTYRTTPGTLARFLIDNPSEKITEIELRKRVKLEGKELEEYLEKEKLKKEAAKKLEQSKEADIDSSDESDIEEDIDQPSAHKTKHDLMMKGEGSRKGSFFKQAKKSYPMFPAPEERIKWDEYGEIIKPEDFLVPELQATEEEKSKLESGLTNGDEPMDQDLSDVPTKCISTTESIEIKARVTYIDYEGRSDGDSIKKIINQMKPRQLIIVHGPPEASQDLAECCRAFGGKDIKVYMPKLHETVDATSETHIYQVRLKDSLVSSLQFCKAKDAELAWIDGVLDMRVSKVDTGVILEEGELKDDGEDSEMQVEAPSDSSVIAQQKAMKSLFGDDEKETGEESEIIPTLEPLPPHEVPGHQSVFMNEPRLSDFKQVLLREGIQAEFVGGVLVCNNQVAVRRTETGRIGLEGCLCQDFYRIRDLLYEQYAIV
- Protein Ratios DMSO/UNC0638 (G9a and GLP): 3.1
- Protein Ratios 3xMBT/D355N (3×MBT domain of L3MBTL1): 8.1

B2: Splicing regulatory glutamine/lysine-rich protein 1 (protein, UniProt Q8N9Q2 1-155, looked up)
Protein SREK1IP1: MAVPGCNKDSVRAGCKKCGYPGHLTFECRNFLRVDPKRDIVLDVSSTSSEDSDEENEELNKLQALQEKRINEEEEKKKEKSKEKIKLKKKRKRSYSSSSTEEDTSKQKKQKYQKKEKKKEKKSKSKKGKHHKKEKKKRKKEKHSSTPNSSEFSRK
- Protein Ratios DMSO/UNC0638 (G9a and GLP): 4.4
- Protein Ratios 3xMBT/D355N (3×MBT domain of L3MBTL1): 2.9

B3: Peroxiredoxin-2 (protein, UniProt P32119 2-198, looked up)
Peroxiredoxin-2: ASGNARIGKPAPDFKATAVVDGAFKEVKLSDYKGKYVVLFFYPLDFTFVCPTEIIAFSNRAEDFRKLGCEVLGVSVDSQFTHLAWINTPRKEGGLGPLNIPLLADVTRRLSEDYGVLKTDEGIAYRGLFIIDGKGVLRQITVNDLPVGRSVDEALRLVQAFQYTDEHGEVCPAGWKPGSDTIKPNVDDSKEYFSKHN
- Protein Ratios DMSO/UNC0638 (G9a and GLP): 2.3
- Protein Ratios 3xMBT/D355N (3×MBT domain of L3MBTL1): 8.6

B4: Metastasis-associated protein 1 (protein)
chain: MAANMYRVGDYVYFENSSSNPYLIRRIEELNKTANGNVEAKVVCFYRRRDISSTLIALADKHATLSVCYKAGPGADNGEEGEIEEEMENPEMVDLPEKLKHQLRHRELFLSRQLESLPATHIRGKCSVTLLNETESLKSYLEREDFFFYSLVYDPQQKTLLADKGEIRVGNRYQADITDLLKEGEEDGRDQSRLETQVWEAHNPLTDKQIDQFLVVARSVGTFARALDCSSSVRQPSLHMSAAAASRDITLFHAMDTLHKNIYDISKAISALVPQGGPVLCRDEMEEWSASEANLFEEALEKYGKDFTDIQQDFLPWKSLTSIIEYYYMWKTTDRYVQQKRLKAAEAESKLKQVYIPNYNKPNPNQISVNNVKAGVVNGTGAPGQSPGAGRACESCYTTQSYQWYSWGPPNMQCRLCASCWTYWKKYGGLKMPTRLDGERPGPNRSNMSPHGLPARSSGSPKFAMKTRQAFYLHTTKLTRIARRLCREILRPWHAARHPYLPINSAAIKAECTARLPEASQSPLVLKQAVRKPLEAVLRYLETHPRPPKPDPVKSVSSVLSSLTPAKVAPVINNGSPTILGKRSYEQHNGVDGNMKKRLLMPSRGLANHGQARHMGPSRNLLLNGKSYPTKVRLIRGGSLPPVKRRRMNWIDAPDDVFYMATEETRKIRKLLSSSETKRAARRPYKPIALRQSQALPPRPPPPAPVNDEPIVIED
- Relative to UNC0638 UNC Heavy (G9a and GLP; SILAC ratio DMSO/UNC0638 of protein pulled down with 3xMBT, UNC0638 in heavy SILAC media): 0.36 log base 2
- Relative to UNC0638 UNC Light (G9a and GLP; SILAC ratio DMSO/UNC0638 of protein pulled down with 3xMBT, UNC0638 in light SILAC media): 0.56 log base 2
- Protein Ratios DMSO/UNC0638 (G9a and GLP): 1.4
- Relative to UNC0638 Average (G9a and GLP; average of UNC Light and UNC Heavy experiments): 0.46 log base 2
- Candidate G9a/GLP target (G9a and GLP; reduced association with 3xMBT after UNC0638 treatment): ✓
- 3xMBT/D355N UNC Heavy (3×MBT domain of L3MBTL1; pull-down 3xMBT vs 3xMBTD355N, experiment with UNC0638 in heavy SILAC media): 0.90 log base 2
- 3xMBT/D355N UNC Light (3×MBT domain of L3MBTL1; pull-down 3xMBT vs 3xMBTD355N, experiment with UNC0638 in light SILAC media): 4.28 log base 2
- Protein Ratios 3xMBT/D355N (3×MBT domain of L3MBTL1): 6.0
